In patent US20200299408A1 (Genentech, published 2020):
Numbering of substitutions follows the chain as printed. Names may count otherwise.

T1: single chain human CD3ε-26mer-CD3γ (CD3εγ) (human)
T1 construct: also called human CD3εγ
T1 chain: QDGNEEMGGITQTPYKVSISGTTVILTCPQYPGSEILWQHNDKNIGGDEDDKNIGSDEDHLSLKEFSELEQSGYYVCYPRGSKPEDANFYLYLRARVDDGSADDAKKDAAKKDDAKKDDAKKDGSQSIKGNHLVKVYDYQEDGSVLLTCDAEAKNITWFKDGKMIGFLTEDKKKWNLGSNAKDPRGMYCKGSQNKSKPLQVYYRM

T2: Commercial hCD3eg
T2 chain 1: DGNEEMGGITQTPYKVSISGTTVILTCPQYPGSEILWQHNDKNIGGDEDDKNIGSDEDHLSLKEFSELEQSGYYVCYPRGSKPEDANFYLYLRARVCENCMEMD
T2 chain 2: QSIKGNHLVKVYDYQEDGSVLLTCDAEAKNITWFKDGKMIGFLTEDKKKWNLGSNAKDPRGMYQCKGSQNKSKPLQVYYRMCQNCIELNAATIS

B1: murine SP34 (antibody, V domains shown)
VH: EVQLVESGGGLVQPKGSLKLSCAASGFTFNTYAMNWVRQAPGKGLEWVARIRSKYNNYATYYADSVKDRFTISRDDSQSILYLQMNNLKTEDTAMYYCVRHGNFGNSYVSWFAYWGQGTLVTVSS
VL: QAVVTQESALTTSPGETVTLTCRSSTGAVTTSNYANWVQEKPDHLFTGLIGGTNKRAPGVPARFSGSLIGDKAALTITGAQTEDEAIYFCALWYSNLWVFGGGTKLTVL
B2: humanized SP34 variant: λ7 graft + F36V + T46G + Y49G / VH3 graft + N73D + T93V (antibody, V domains shown)
VH: B1 VH with K15G, K19R, A49G, Q78K, S79N, I80T, N87S, K89R, T90A, M95V
VL: EAVVTQEPSLTVSPGGTVTLTCRSSTGAVTTSNYANWVQQKPGQAPRGLIGGTNKRAPWTPARFSGSLLGGKAALTLSGAQPEDEAEYYCALWYSNLWVFGGGTKLTVL
B3: humanized SP34 variant: λ7 graft + F36V + Q38E + A43L + P44F + T46G + Y49G + T58V + Y87F / VH3 graft + G49A + T93V (antibody, V domains shown)
VH: B1 VH with K15G, K19R, D76N, Q78K, S79N, I80T, N87S, K89R, T90A, M95V
VL: B2 VL with Q40E, A45L, P46F, T60V, Y89F
B4: humanized SP34 variant: λ7 graft + F36V + Q38E + A43L + P44F + T46G + Y49G + T58V + Y87F / VH3 graft + N73D + T93V (antibody, V domains shown)
VH: B1 VH with K15G, K19R, A49G, Q78K, S79N, I80T, N87S, K89R, T90A, M95V
VL: B2 VL with Q40E, A45L, P46F, T60V, Y89F
B5: humanized SP34 variant: λ7 graft + F36V + Q38E + A43L + P44F + T46G + Y49G + T58V + Y87F / VH3 graft G49A + N73D + T93V (antibody, V domains shown)
VH: B1 VH with K15G, K19R, Q78K, S79N, I80T, N87S, K89R, T90A, M95V
VL: B2 VL with Q40E, A45L, P46F, T60V, Y89F
B6: humanized SP34 variant: λ7 graft + F36V + T46G + Y49G / VH3 graft + T93V (antibody, V domains shown)
VH: EVQLVESGGGLVQPGGSLRLSCAASGFTFNTYAMNWVRQAPGKGLEWVGRIRSKYNNYATYYADSVKDRFTISRDNSKNTLYLQMNSLRAEDTAVYYCVRHGNFGNSYVSWFAYWGQGTLVTVSS
VL: B2 VL
B7: humanized SP34 variant: λ7 graft + F36V + T46G + Y49G / VH3 graft G49A + N73D + T93V (antibody, V domains shown)
VH: B6 VH with G49A, N76D
VL: B2 VL
B8: hu38E4.v1 H3 mutant Y100A (Fab, V domains shown)
VH: EVQLVQSGAEVKKPGASVKVSCKASGFTFTSYYIHWVRQAPGQGLEWIGWIYPENDNTKYNEKFKDRVTITADTSTSTAYLELSSLRSEDTAVYYCARDGYSRAYFDYWGQGTLVTVSS
VL: DIVMTQSPDSLAVSLGERATINCKSSQSLLNSRTRKNYLAWYQQKPGQSPKLLIYWTSTRKSGVPDRFSGSGSGTDFTLTISSLQAEDVAVYYCKQSFILRTFGQGTKVEIK
notes: copies: 1 + 1
B9: hu38E4.v1 H3 mutant Y100aA (Fab, V domains shown)
VH: B8 VH with A104Y, Y105A
VL: B8 VL
notes: copies: 1 + 1
B10: hu38E4.v1 L3 mutant F92A (Fab, V domains shown)
VH: B8 VH with A104Y
VL: B8 VL with F98A
notes: copies: 1 + 1
B11: hu38E4.v1 L3 mutant I93A (Fab, V domains shown)
VH: B8 VH with A104Y
VL: B8 VL with I99A
notes: copies: 1 + 1
B12: hu38E4.v1 L3 mutant Q90A (Fab, V domains shown)
VH: B8 VH with A104Y
VL: B8 VL with Q96A
notes: copies: 1 + 1
B13: 30A1 (antibody, IgG1, V domains shown)
VH: QVQLKESGPGLVAPSQSLSITCTVSGFSLTNYAIHWVRQPPGKGLDWLGVIWAGGNTKYNSALMSRLSFSKDNSKSQVFLEINSLQTDDTAMYYCAREDSSGYVALDYWGQGTSVTVSS
VL: NIVMTQSPSSLAVSAGEKVTMSCKSSQSLLSGRTRKNYLAWYQQKPGQSPKLLIYWASTRESGVPDRFTGSGSGTDFTLTISSVQAEDLAVYYCKQSYYLLTFGAGTKLELK
notes: mouse hybridoma clone
B14: 13A3 (antibody, IgG2b, V domains shown)
VH: EVQLQQSGPELVKPGASVRISCKASGYTFTSYYIHWMKQRPGQGLEWIGWIYPGNVNTKYNEKFKGKATLTADNSSSTANMQLSSLTSEDSAVYFCARNHDYYFDYWGQGTTLTVSS
VL: B13 VL with N1D, M4L, S31N, G32S, Y99I, L101R, A105G, L111I
notes: mouse hybridoma clone; also called 13A3 (xCD3)
B15: 19B1 (antibody, IgG2b, V domains shown)
VH: B14 VH
VL: B13 VL with N1G, S31N, G32S, Y99I, L101R, A105G, L111I
notes: mouse hybridoma clone; also called 19B1 (xCD3)
B16: 72H6 (antibody, IgG2a, V domains shown)
VH: EVQLQQSGPELVKPGASVKISCKASGYSFTSYYIHWVKQRPGQGLEWIGWIFPGSDNTKYNEKFKGKATLTADTSSSTAYMQLSSLTSEDSAVYFCARNGNYAMDYWGQGTSVTVSS
VL: B13 VL with N1E, M4L, T5S, S31N, G32S, Y99T, L101R, A105G, L111I
notes: mouse hybridoma clone; also called 72H6 (xCD3)
B17: hu38E4.v1 H3 mutant D101A (Fab, V domains shown)
VH: B8 VH with A104Y, D107A
VL: B8 VL
notes: copies: 1 + 1
B18: hu38E4.v1 H3 mutant S98A (Fab, V domains shown)
VH: B8 VH with S102A, A104Y
VL: B8 VL
notes: copies: 1 + 1
B19: hu38E4.v1 H3 mutant Y102A (Fab, V domains shown)
VH: B8 VH with A104Y, Y108A
VL: B8 VL
notes: copies: 1 + 1
B20: hu38E4.v1 L3 mutant K89A (Fab, V domains shown)
VH: B8 VH with A104Y
VL: B8 VL with K95A
notes: copies: 1 + 1

biological target: T3, commercial CD3ε (Creative Biomart, Catalog Number CD3E-2194H) (human, UniProt P07766); assay: binding affinity on commercial CD3ε (Creative Biomart CD3E-2194H); method not stated in the legend
T3 construct: commercial recombinant protein; also called commercial CD3E

Binder	Kd
B1	7 nM
B2	3.5 nM
B3	21 nM
B4	3.1 nM
B5	8 nM
B6	15.9 nM
B7	14.5 nM

Biological target: T1, single chain human CD3ε-26mer-CD3γ …
Assay: Biacore full (multi-) cycle kinetics: antigen on chip, Fab injected; antigen not named on the sheet, taken as human CD3εγ
Excerpt: (§1) In addition, position 95 in HVR-H3 was also mutated to serine, threonine, or glutamate. Variants with these single point mutations were expressed as Fabs in HEK293 cells and initially screened with a single cycle kinetics method on a Biacore T100. Selected variants were also scaled up and purified for a conventional multi-cycle kinetics method. For single cycle kinetics, Biacore Series S CM5 sensor chips were immobilized with anti-human Fab antibodies (Human Fab capture kit, GE Healthcare). […] For conventional multi-cycle kinetics, human CD3εγ, cyno CD3εγ, or a 27-mer peptide were immobilized on Biacore Series S CM5 sensor chip using the amine coupling kit from Biacore. Serial 3-fold dilutions of each Fab variant were injected at a flow rate of 30 μl/min. Each sample was analyzed with a protocol of 3-minute association and 3-minute dissociation. In both methods, the Biacore chips were regenerated using 10 mM Glycine (pH 1.7). Binding response was corrected by blank subtraction and a 1:1Languir model of simultaneous fitting of kₒₙ and koff was used for kinetics analysis.

Binder	Kd	koff	kon
B8	414 nM	0.0191 s⁻¹	46000 M⁻¹ s⁻¹
B9	87 nM	0.0246 s⁻¹	283000 M⁻¹ s⁻¹
B10	15.9 nM	0.0232 s⁻¹	1.46e+06 M⁻¹ s⁻¹
B11	4 nM	0.0124 s⁻¹	3.08e+06 M⁻¹ s⁻¹
B12	23.8 nM	0.00422 s⁻¹	178000 M⁻¹ s⁻¹

Biological target: T1, single chain human CD3ε-26mer-CD3γ …
Assay: Biacore full (multi-) cycle kinetics; KD relative to hu38E4.v1
Excerpt: as §1

Binder	ratio (fold)
B8	521 fold
B9	110 fold
B10	20 fold
B11	5.1 fold
B12	29.9 fold

Biological target: T2, Commercial hCD3eg
Assay: mu IgG against commercial hCD3eg; method not stated on the sheet

Binder	Kd
B13	0.4 nM
B14	0.6 nM
B15	0.7 nM
B16	2.5 nM

Biological target: T1, single chain human CD3ε-26mer-CD3γ …
Assay: Biacore single cycle kinetics; KD relative to hu38E4.v1
Excerpt: as §1

Binder	ratio (fold)
B17	7.2 fold
B18	1.1 fold
B19	1.2 fold
B20	0.7 fold

Biological target: T1, single chain human CD3ε-26mer-CD3γ …
Assay: Biacore single cycle kinetics: Fab captured by anti-human Fab, human CD3εγ injected (3-250 nM)
Excerpt: as §1

Binder	Kd	koff	kon
B17	24.1 nM	0.00342 s⁻¹	142000 M⁻¹ s⁻¹
B18	3.8 nM	0.00147 s⁻¹	385000 M⁻¹ s⁻¹
B19	4.1 nM	0.00132 s⁻¹	322000 M⁻¹ s⁻¹
B20	2.4 nM	0.00102 s⁻¹	428000 M⁻¹ s⁻¹
